Laboratory results published in patent CN113372440A (SUN YAT SEN UNIV CANCER CENTER SUN YAT SEN UNIV AFFILIATED …, dated 2021).
Where two headings read alike, the source gives them in different places.

Tests used:
[1] = biological target: gH/gL glycoprotein on EBV virions produced by AKATA cells (Epstein-Barr virus, UniProt P03231 19-706; P03212 23-137); assay: cell-based or functional assay
[2] = biological target: T1, gLgH蛋白 (recombinant single-chain EBV M81 gL ectodomain - linker - gH ectodomain - 6xHis) (Epstein-Barr virus (M81 strain, …)); assay: ELISA, gLgH coated at 2 μg/mL, antibody titrated from 1 μg/mL, HRP goat anti-mouse IgG (Fig. 1)
T1 construct: also called gHgL蛋白; gLgH protein

[3] = biological target: T1, gLgH蛋白 (recombinant single-chain EBV …)
[4] = biological target: T1, gLgH蛋白 (recombinant single-chain EBV …); assay: SPR by the method of Example 4 (Biacore 8K, Protein A capture, gLgH as analyte) (Fig. 9)
[5] = biological target: T1, gLgH蛋白 (recombinant single-chain EBV …); assay: ELISA by the method of Example 1 step 5, gLgH coated (Fig. 8)

B1: 单克隆抗体6H2 (anti-EBV gLgH mouse monoclonal antibody 6H2) (antibody, V domains shown)
VH: EVKLLESGGGLVQPGGSLKLSCAASGFDFSRYWMTWVRQAPGQGLEWIGEINPDSSTINYTPSLKDKFIISRDNAKNTLYLQVSKLRSEDTALYYCARSPYYYGSSYDVWGAGTAVTVSS
VL: DIVMSQSPSSLAVSAGEKVTMNCKSSQSLLNSRTRKNYLAWYQQKPGQSPKLLIYWASTRESGVPDRFTGSGSGTDFTLTISSVQAEDLAFYYCKQSYNLPTFGGGTKLEIK
notes: also called 单抗6H2; 中和抗体6H2
**Q.** With B1 as the binder, how does the “IC50 in the epithelial cell infection model (HNE1 cells, GFP-EBV, inhibition of GFP-positive cells)” value [1] read?
**A.** 0.108 µg/mL

**Q.** What about the EC50 [2] of the same binder?
**A.** 0.0134 µg/mL

**Q.** And the Kd [3]?
**A.** 2.8 nM

B2: 嵌合单抗C6H2 (mouse 6H2 variable regions on human IgG1/kappa constant regions) (antibody, V domains shown)
VH: B1 VH
VL: DIVMSQSPSSLAVSAGEKVTMNCKSSQSLLNSRTRKNYLAWYQQKPGQSPKLLIYWASTRESGVPDRFTGSGSGTDFTLTISSVQAEDLAFYYCKQSYNLPTFGGGTKLEIKR
notes: also called 嵌合抗体C6H2
**Q.** With B2 as the binder, how does the Kd [4] read?
**A.** 11.5 nM

**Q.** And the EC50 [5]?
**A.** 0.0266 µg/mL
